From patent US10538556

What was measured:
[1] = system: stapled (cyclic) beta2-beta3 loop peptide L44C, F56C (synthetic); experiment: flow; conditions: 25 C, E. coli surface display, apparent Kd
[2] = system: Tat peptide (basic domain) (Human immunodeficiency virus 1); conditions: method of this Kd not stated
[3] = system: TBP6.7 (U1A-derived TAR binding protein, crystallization variant) (Homo sapiens); experiment: ITC
[4] = target: TBP6.7 P46A P46A (in TBP6.7 Y31H/Q36R) (Homo sapiens) (UniProt P09012); experiment: ITC; conditions: 20 C
[5] = target: TBP6.7 P51A P51A (in TBP6.7 Y31H/Q36R) (Homo sapiens) (UniProt P09012); experiment: ITC; conditions: 20 C
[6] = target: TBP6.7 Q48A Q48A (in TBP6.7 Y31H/Q36R) (Homo sapiens) (UniProt P09012); experiment: ITC; conditions: 20 C
[7] = target: TBP6.7 Q48T Q48T (in TBP6.7 Y31H/Q36R) (Homo sapiens) (UniProt P09012); experiment: ITC; conditions: 20 C
[8] = target: TBP6.7 Q54A Q54A (in TBP6.7 Y31H/Q36R) (Homo sapiens) (UniProt P09012); experiment: ITC; conditions: 20 C
[9] = target: TBP6.7 R47A R47A (in TBP6.7 Y31H/Q36R) (Homo sapiens) (UniProt P09012); experiment: ITC; conditions: 20 C; estimate, low c-value
[10] = target: TBP6.7 R47K R47K (in TBP6.7 Y31H/Q36R) (Homo sapiens) (UniProt P09012); experiment: ITC; conditions: 20 C
[11] = target: TBP6.7 R49A R49A (in TBP6.7 Y31H/Q36R) (Homo sapiens) (UniProt P09012); experiment: ITC; conditions: 20 C
[12] = target: TBP6.7 R52A R52A (in TBP6.7 Y31H/Q36R) (Homo sapiens) (UniProt P09012); experiment: ITC; conditions: 20 C
[13] = target: TBP6.7 T50A T50A (in TBP6.7 Y31H/Q36R) (Homo sapiens) (UniProt P09012); experiment: ITC; conditions: 20 C; error printed as XX
[14] = system: TBP6.7 deltaC truncated after residue 90 (in TBP6.7 Y31H/Q36R) (Homo sapiens); experiment: ITC; conditions: 20 C

Sequence of TBP6.7 Q54A Q54A (in TBP6.7 Y31H/Q36R) (Homo sapiens) (P09012 1-98 Y31H/Q36R/Q54A): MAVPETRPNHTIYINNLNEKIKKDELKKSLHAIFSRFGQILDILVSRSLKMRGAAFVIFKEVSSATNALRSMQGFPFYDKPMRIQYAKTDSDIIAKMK
Sequence of TBP6.7 Q48A Q48A (in TBP6.7 Y31H/Q36R) (Homo sapiens) (P09012 other isoform, or with tags, fused parts or gaps Q48A Q48A Y31H Q36R): as the sequence (P09012 1-98 Y31H/Q36R/Q54A) above, with H31Y, R36Q, A54Q, Y78H counted along it
Sequence of TBP6.7 R47A R47A (in TBP6.7 Y31H/Q36R) (Homo sapiens) (P09012 1-98 Y31H/Q36R/R47A): as the sequence (P09012 1-98 Y31H/Q36R/Q54A) above, with R47A, A54Q counted along it
Sequence of TBP6.7 R52A R52A (in TBP6.7 Y31H/Q36R) (Homo sapiens) (P09012 1-98 Y31H/Q36R/R52A): as the sequence (P09012 1-98 Y31H/Q36R/Q54A) above, with R52A, A54Q counted along it
Sequence of TBP6.7 R47K R47K (in TBP6.7 Y31H/Q36R) (Homo sapiens) (P09012 1-98 Y31H/Q36R/R47K): as the sequence (P09012 1-98 Y31H/Q36R/Q54A) above, with R47K, A54Q counted along it
Sequence of TBP6.7 R49A R49A (in TBP6.7 Y31H/Q36R) (Homo sapiens) (P09012 whole entry, stated change not applied): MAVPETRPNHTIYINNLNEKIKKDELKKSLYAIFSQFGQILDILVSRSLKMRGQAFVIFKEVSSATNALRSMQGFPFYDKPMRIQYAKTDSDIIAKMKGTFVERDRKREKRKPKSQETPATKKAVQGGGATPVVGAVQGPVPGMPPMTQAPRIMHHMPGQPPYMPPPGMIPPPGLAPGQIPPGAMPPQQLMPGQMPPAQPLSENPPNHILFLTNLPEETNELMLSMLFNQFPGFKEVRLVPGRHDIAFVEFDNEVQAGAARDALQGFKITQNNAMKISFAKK
Sequence of TBP6.7 T50A T50A (in TBP6.7 Y31H/Q36R) (Homo sapiens) (P09012 whole entry, stated change not applied, the tested form may be a part): as the sequence (P09012 whole entry, stated change not applied) above
Sequence of TBP6.7 P51A P51A (in TBP6.7 Y31H/Q36R) (Homo sapiens) (P09012 whole entry, stated change not applied): as above
Sequence of TBP6.7 Q48T Q48T (in TBP6.7 Y31H/Q36R) (Homo sapiens) (P09012 whole entry, stated change not applied): as above
Sequence of TBP6.7 P46A P46A (in TBP6.7 Y31H/Q36R) (Homo sapiens) (P09012 whole entry, stated change not applied): as above

## HIV-1 TAR RNA
[1]
  Kd: 80 nM
[2]
  Kd: 260 nM
[3]; 20 C, n=0.99
  Kd: 2.5 nM
[3]; 37 C, 0.05 M NaCl, 0.05 M KCl, 2 mM MgCl2, 2 mM beta-mercaptoethanol, pH 7.5, estimate of about 0.7 nM at 20 C in same example
  Kd: 18.5 nM
[4]
  Kd: 11.7 nM
[5]
  Kd: 10.8 nM
[6]
  Kd: 5.5 nM
[7]
  Kd: 3.6 nM
[8]
  Kd: 7.2 nM
[9]
  Kd: 1520 nM
[10]
  Kd: 156 nM
[11]
  Kd: 710 nM
[12]
  Kd: 290 nM
[13]
  Kd: 11.4 nM
[14]
  Kd: 12 nM
